{
  "source": "patent US6468959B1",
  "about": "“Peroral dosage form for peptide containing medicaments, in particular insulin” (ALFATEC-Pharm GmbH, priority 1991, dated 2002)",
  "origin": "cited, not measured here",
  "conditions": "weakly acid environments of pH 3 to 4 and at pH 7 to 8",
  "data": [
    {"substance": "insulin", "values": [
      {"measurement": "solubility", "value": "soluble"},
      {"measurement": "stability", "value": "adequately stable"}
    ]}
  ]
}
